The target in experiment [1] is HIV-1 Env gp140 89.6 (HIV-1 isolate 89.6) (UniProt Q73372). Kind of experiment: ELISA on coated gp140 89.6 and SPR (Biacore X100, single-cycle, bivalent model). (An ELISA detects its analyte on a solid surface through an enzyme-linked reagent.)
For experiment [2] the target is unchanged. Kind of experiment: ELISA, gp140 89.6 coated at 2 µg/ml, detection with HRP goat anti-human IgG (Fab-specific).
For experiment [3] the target is unchanged. Kind of experiment: SPR, Biacore X100, single-cycle, analytes at 0.1-1,000 nM on gp140 89.6, bivalent binding model.

Take “MD13 (MD mutant with S64E/S66V in CH1 and S69L/T71S in CK)”: the fold higher affinity than MD in experiment [1] is 1000 fold. This substance yielded a half-maximal effective concentration (EC50 (read off the curve)) in experiment [2] of 1 to 10 nM. In experiment [3], the Kd was determined as 17 nM, the off-rate constant (koff) was 0.00081 s⁻¹ and the kon worked out at 47000 M⁻¹ s⁻¹.
As to “MD (mD1.22-CH1/m36.4-CK heterodimer, wild-type CH1-CK)”, in experiment [3], the Kd was 16000 nM, the off-rate constant (koff) is 0.077 s⁻¹ and the on-rate (kon) was 4800 M⁻¹ s⁻¹.

One may read the EC50 (read off the curve) as the concentration needed to bring the measured effect to its halfway point. A high value points to lower potency in that assay. For orientation: koff means the first-order rate constant of dissociation. Broadly, the kon is the second-order rate constant of association. A higher kon goes with fast association.

These data come from patent US20180118815A1.
